In the supplement of paper PMC6757056:
± gives the standard deviation of the averaged measurements.

B1: library; a variant is named by its letters at N, in order (parent)
chain: GCUGUCACCGGUGUAUUACCCUAGUGGUCGACCGGUCUGAUGAGUCUNNNNNNAGACGAAACAGC

Columns and labels:
hypoxanthine [1] = variants of: B1; experiment: normalized RNA/DNA level with ligand (relative to sTRSVctl = 100) (log10 (% of sTRSVctl)); ligand: hypoxanthine (xanthine aptamer); higher = less ribozyme self-cleavage, higher mRNA level; conditions: ligand concentration (+) RNA-Seq: 5 mM, HEK293T, reporter: mCherry (pCS4076), ligand present: yes
Method in brief: (§1)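 RNA level was computed as RNA reads over DNA reads divided by a spiked-in non-cleaving sequence or by the top sequences, then scaled and log-transformed. Scaling was ×100 with log10, the top group was 25 sequences, and the threshold was ≥100 DNA reads. The reads came from HEK293T cells transfected at 4 µg per 6-well well with ribozyme switch library plasmids (mCherry, or eGFP in some ligand experiments). Total RNA was extracted with EDTA 72 h after transfection, with any ligand added 1 h before it.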

hypoxanthine [2] = variants of: B1; experiment: normalized RNA/DNA level without ligand (relative to sTRSVctl = 100) (log10 (% of sTRSVctl)); ligand: hypoxanthine (xanthine aptamer); higher = less ribozyme self-cleavage, higher mRNA level; conditions: HEK293T, reporter: mCherry (pCS4076), ligand present: no
Method in brief: as §1

Row | Variant | normalized RNA/DNA level with ligand (log10) (hypoxanthine [1]) | normalized RNA/DNA level without ligand (log10) (hypoxanthine [2])
1 | GACCAU | 1.932 ± 0.0042 | 1.838 ± 0.0066
2 | GACCAC | 1.94 ± 0.022 | 1.835 ± 0.017
3 | UAGCCU | 2 ± 0.037 | 1.953 ± 0.006
4 | UAGCCA | 1.93 ± 0.032 | 1.91 ± 0.082
5 | UAGCCG | 1.982 ± 0.016 | 1.728 ± 0.0043
6 | UAGCCC | 1.956 ± 0.018 | 1.885 ± 0.0052
7 | AACACU | 1.92 ± 0.044 | 1.859 ± 0.018
8 | AAGAAC | 1.9 ± 0.032 | 1.7418 ± 0.00032
9 | GAGACC | 1.96 ± 0.048 | 1.82 ± 0.017
10 | UACGAC | 1.9194 ± 0.00024 | 1.804 ± 0.0045
11 | CACGCC | 1.99 ± 0.047 | 1.839 ± 0.015
12 | CACGCG | 1.9257 ± 1.5e-05 | 1.88 ± 0.029
13 | CACGCA | 1.92 ± 0.054 | 1.81 ± 0.041
14 | GACGCG | 1.872 ± 0.0041 | 1.51 ± 0.11
15 | GACGCC | 1.9 ± 0.04 | 1.79 ± 0.054
16 | GACGCA | 1.91 ± 0.052 | 1.82 ± 0.034
17 | CAGAGC | 1.926 ± 0.019 | 1.74 ± 0.022
18 | CAGAGU | 1.97 ± 0.035 | 1.79 ± 0.056
19 | UACCGC | 1.942 ± 0.0069 | 1.8 ± 0.039
20 | UAGUAA | 1.939 ± 0.016 | 1.77 ± 0.022
21 | UAGGCA | 1.905 ± 0.01 | 1.812 ± 0.0025
22 | UAGGCU | 1.957 ± 0.013 | 1.89 ± 0.027
23 | UAGGCG | 1.892 ± 0.01 | 1.67 ± 0.037

Row | Variant | normalized RNA/DNA level with ligand (log10) (hypoxanthine [1]) | normalized RNA/DNA level without ligand (log10) (hypoxanthine [2])
24 | UAGGAC | 1.934 ± 0.0064 | 1.83 ± 0.037
25 | UAGGAG | 1.872 ± 0.018 | 1.41 ± 0.04
26 | GACUCC | 1.989 ± 0.019 | 1.96 ± 0.04
27 | GACUCA | 1.97 ± 0.029 | 1.892 ± 0.0056
28 | GACUCU | 1.94 ± 0.092 | 1.93 ± 0.029
29 | GACUUA | 1.88 ± 0.0036 | 1.84 ± 0.023
30 | GACUUU | 1.923 ± 0.017 | 1.91 ± 0.056
31 | GACUUC | 1.9476 ± 0.0019 | 1.98 ± 0.098
32 | CACCAG | 1.97 ± 0.057 | 1.81 ± 0.061
33 | CACCAA | 1.9 ± 0.032 | 1.79 ± 0.082
34 | CACCAU | 1.92 ± 0.021 | 1.8 ± 0.024
35 | CAGGUU | 1.975 ± 0.0057 | 1.86 ± 0.0041
36 | CAGGUG | 1.9 ± 0.025 | 1.77 ± 0.03
37 | CAGGUC | 1.94 ± 0.015 | 1.874 ± 0.011
38 | AAGACU | 1.95 ± 0.064 | 1.856 ± 0.0071
39 | GACAUC | 1.97 ± 0.081 | 1.93 ± 0.077
40 | GACAUU | 1.92 ± 0.057 | 1.856 ± 0.0056
41 | UACGGU | 1.847 ± 0.0077 | 1.59 ± 0.064
42 | UACAUU | 1.941 ± 0.0099 | 1.855 ± 0.016
43 | UACAUC | 1.979 ± 0.018 | 2 ± 0.03
44 | UACAUA | 1.93 ± 0.038 | 1.86 ± 0.024
45 | CACCUA | 1.921 ± 0.0097 | 1.76 ± 0.11
46 | CACCUC | 1.99 ± 0.081 | 1.969 ± 0.011

Row | Variant | normalized RNA/DNA level with ligand (log10) (hypoxanthine [1]) | normalized RNA/DNA level without ligand (log10) (hypoxanthine [2])
47 | CACCUG | 2.01 ± 0.064 | 1.922 ± 0.009
48 | CACUAC | 1.9 ± 0.07 | 1.8 ± 0.034
49 | CACUAU | 1.908 ± 0.018 | 1.845 ± 0.013
50 | CACUAG | 1.901 ± 0.0088 | 1.759 ± 0.0057
51 | AACCAA | 1.91 ± 0.037 | 1.78 ± 0.072
52 | AACCAU | 1.873 ± 0.0073 | 1.8 ± 0.04
53 | CAGACG | 1.98 ± 0.035 | 1.8 ± 0.081
54 | CAGACU | 1.92 ± 0.043 | 1.92 ± 0.022
55 | CAGACC | 2.04 ± 0.037 | 1.96 ± 0.045
56 | CACGGA | 1.912 ± 0.0058 | 1.8 ± 0.048
57 | CACGGC | 1.965 ± 0.003 | 1.87 ± 0.013
58 | CACGGG | 1.84 ± 0.033 | 1.32 ± 0.019
59 | UAGAUC | 1.964 ± 0.012 | 1.955 ± 0.018
60 | UAGAUA | 1.917 ± 0.0088 | 1.82 ± 0.071
61 | UAGAUU | 1.93 ± 0.027 | 1.866 ± 0.017
62 | AAGCAC | 1.89 ± 0.027 | 1.69 ± 0.047
63 | AAGCAU | 1.88 ± 0.027 | 1.705 ± 0.0018
64 | GAGCCG | 1.85 ± 0.034 | 1.44 ± 0.021
65 | GAGCCU | 2.01 ± 0.028 | 1.94 ± 0.024
66 | GAGCCC | 1.99 ± 0.053 | 1.906 ± 0.013
67 | GACCCA | 1.928 ± 0.0094 | 1.833 ± 0.0075
68 | GAGCGU | 1.915 ± 0.0047 | 1.647 ± 0.0019
69 | CACGUC | 1.98 ± 0.061 | 1.971 ± 0.005

Row | Variant | normalized RNA/DNA level with ligand (log10) (hypoxanthine [1]) | normalized RNA/DNA level without ligand (log10) (hypoxanthine [2])
70 | CACGUG | 1.92 ± 0.028 | 1.79 ± 0.095
71 | CACGUU | 1.96 ± 0.024 | 1.864 ± 0.0061
72 | CACGAC | 1.95 ± 0.028 | 1.84 ± 0.0038
73 | CACGAU | 1.95 ± 0.027 | 1.78 ± 0.043
74 | CACGAG | 1.9 ± 0.035 | 1.6 ± 0.026
75 | CAGAAU | 1.9 ± 0.034 | 1.64 ± 0.072
76 | CAGAAG | 1.9 ± 0.028 | 1.59 ± 0.021
77 | AACGAU | 1.9 ± 0.028 | 1.653 ± 0.011
78 | GACUGC | 1.905 ± 0.01 | 1.66 ± 0.052
79 | GACUGU | 1.89 ± 0.033 | 1.8123 ± 0.00033
80 | UACUCG | 1.929 ± 0.009 | 1.72 ± 0.072
81 | UACUCU | 1.915 ± 0.0075 | 1.91 ± 0.026
82 | UACUCC | 2 ± 0.058 | 1.964 ± 0.011
83 | CACUGC | 1.96 ± 0.037 | 1.909 ± 0.0035
84 | CACUGA | 1.95 ± 0.049 | 1.83 ± 0.022
85 | CACUGU | 2 ± 0.021 | 1.97 ± 0.022
86 | GACGUA | 1.92 ± 0.033 | 1.773 ± 0.0082
87 | GACGUG | 1.83 ± 0.095 | 1.29 ± 0.024
88 | GACGUC | 1.95 ± 0.046 | 1.85 ± 0.019
89 | GAGCAU | 1.944 ± 0.018 | 1.72 ± 0.022
90 | AAGCGC | 1.89 ± 0.051 | 1.6 ± 0.039
91 | AACAUC | 1.95 ± 0.022 | 2.02 ± 0.022
92 | AACAUU | 1.91 ± 0.053 | 1.873 ± 0.011

Row | Variant | normalized RNA/DNA level with ligand (log10) (hypoxanthine [1]) | normalized RNA/DNA level without ligand (log10) (hypoxanthine [2])
93 | CAGCUU | 1.954 ± 0.0095 | 1.86 ± 0.027
94 | CAGCUG | 1.946 ± 0.019 | 1.89 ± 0.028
95 | CAGCUA | 1.903 ± 0.012 | 1.65 ± 0.056
96 | CACUCC | 1.93 ± 0.021 | 1.92 ± 0.063
97 | CACUCU | 1.963 ± 0.0079 | 1.91 ± 0.026
98 | CACUCG | 1.99 ± 0.066 | 1.92 ± 0.062
99 | CACUCA | 1.93 ± 0.024 | 1.89 ± 0.033
100 | CACAGG | 1.77 ± 0.089 | 1.26 ± 0.06
101 | CACAGA | 1.97 ± 0.05 | 1.847 ± 0.015
102 | CACAGC | 1.9491 ± 1.9e-05 | 1.87 ± 0.044
103 | CACAGU | 1.926 ± 0.0077 | 1.844 ± 0.0086
104 | GAGAGU | 1.87 ± 0.091 | 1.49 ± 0.029
105 | AAGCUA | 1.91 ± 0.021 | 1.68 ± 0.056
106 | AAGCUC | 1.975 ± 0.002 | 1.959 ± 0.01
107 | AAGCUU | 1.94 ± 0.062 | 1.86 ± 0.023
108 | CAGUAA | 1.855 ± 0.012 | 1.53 ± 0.081
109 | CAGGCG | 1.96 ± 0.035 | 1.837 ± 0.0025
110 | CAGGCU | 1.938 ± 0.0094 | 1.919 ± 0.0073
111 | CAGGCA | 1.912 ± 0.008 | 1.68 ± 0.069
112 | CAGGCC | 2 ± 0.027 | 2 ± 0.032
113 | GACGGU | 1.95 ± 0.036 | 1.797 ± 0.0024
114 | GACGGG | 1.885 ± 0.0056 | 1.41 ± 0.039
115 | GACGGA | 1.92 ± 0.047 | 1.683 ± 0.0063
